In patent US20260232829A1 (CYTOSPIRE THERAPEUTICS, published 2026) one finds Kd data, which are given here for three molecules.

Sequences and labels used below:
B1: CYTB21 (antibody, human IgG1, kappa, V domains shown)
VH: EVQLVQSGAEVKEPGESLKISCKNSGYSFTNYWVGWVRQMPGKGLEWMGIIYPGDSDTRYSPSFQGQVTISADKSINTAYLQWSSLKASDTAMYYCGRLTMFRGIIIGYFDYWGQGTLVTVSS
VL: EIVLTQSPATLSLSPGERATLSCRASQSVSSYLAWYQQKPGQAPRLLIYDASNRATGIPARFSGSGSGTDFTLTISSLEPEDFAVYYCQQRSNWPWTFGQGTKVEIKR
notes: Control, Format E: anti-NKG2D IgG1 (H6/L6) without IL-15 components; also called CYB21; anti-NKG2D IgG1
B2: Human IL-15R beta/CD122 Protein, His Tag (Acro Biosystems CD2-H5221) (receptor, UniProt P14784 27-239, looked up)
chain: AVNGTSQFTCFYNSRANISCVWSQDGALQDTSCQVHAWPDRRRWNQTCELLPVSQASWACNLILGAPDSQKLTTVDIVTLRVLCREGVRWRVMAIQDFKPFENLRLMAPISLQVVHVETHRCNISWEISQASHYFERHLEFEARTLSPGHTWEEAPLLTLKQKQEWICLETLTPDTQYEFQVRVKPLQGEFTTWSPWSQPLAFRTKPAALGKD
notes: Bought recombinant protein with a His tag; also called Human IL-15Rβ protein; IL-15 receptor beta-His
B3: Human his-tagged NKG2D/CD314 (Acro Biosystems, NKD-H5245) (receptor, UniProt P26718 78-216, looked up)
chain: FLNSLFNQEVQIPLTESYCGPCPKNWICYKNNCYQFFDESKNWYESQASCMSQNASLLKVYSKEDQDLLKLVKSYHWMGLVHIPTNGSWQWEDGSILSPNLLTIIEMQKGDCALYASSFKGYIENCSTPNTYICMQRTV
notes: Bought recombinant protein with a His tag; also called Human NKG2D-His protein; NKG2D-His

For assay [1], the target named is B3. Kind of assay: SPR (Biacore), molecule captured on anti-human IgG Fc chip, antigen as analyte, 1:1 Langmuir fit. The protocol: (§1) In brief, the test molecules were first immobilized on a goat anti-human IgG (Fc specific) antibody plated on a Biacore CM5 Series S sensor chip (CFJB1172, Cytiva Cat No. 29149603) by injection at 5 nM at flow rate 30 ul/min. […] The quality of the fits was assessed by visual inspection.
For orientation: SPR reads the build-up and loss of mass on a sensor chip optically.

Assay [2] addresses T1, CYTB29.
T1 construct: Comparator, Format G: three chains, monovalent for NKG2D (H5/L5) and IL-15 receptor beta; wild-type IL-15
The assay is described as follows: SPR avidity format, antigen immobilised on CM5 chip, test molecule injected as analyte. The source says:
(§2) In order explore avidity binding effects (rather than affinity), a different assay orientation was employed. Specifically, the recombinant target human antigens (NKG2D-His or IL-15 receptor beta-His antigens, see Example 5) were immobilized on CM5 Series S sensor chips (Cytiva, catalogue number 29149603). […] Irrelevant mAbs were employed to determine and subtract background. As previously (Example 5), standard regeneration solutions and buffers were employed. To determine and compare avidity effects, test molecules were the injected in stepwise serial dilutions and sensogram responses generated.

Assay [3] addresses T2, CYTB04.
T2 construct: Immunocytokine, Format A: anti-NKG2D IgG1 (H5/L5) with sushi-IL-15 at the C-terminus of each heavy chain
The assay is described as follows: SPR (Biacore), molecule captured on anti-human IgG Fc chip, antigen as analyte, 1:1 Langmuir fit. As to the method: as §1

Assay [4] deals with T1, CYTB29. Described as above. As to the method: as §1
The target of assay [5] is T3, CYTB30.
T3 construct: Comparator, Format G: three chains, monovalent for both targets; also called CYB30
Kind of assay: SPR avidity format, antigen immobilised on CM5 chip, test molecule injected as analyte; avidity format of Table 6 (Example 6); not the capture format of Table 5.
Source text: as §2

B1 returned a Kd in assay [1] of 1.65 nM.

In the case of B2, the Kd amounted to 6.4 nM in assay [2], 6 nM in assay [3] and 3.52 nM in assay [4].

Regarding B3, the Kd came to 4.8 nM in assay [2], 3830 nM in assay [5], 1.25 nM in assay [3] and 1.92 nM in assay [4].
